The source of these data is paper PMC6299030, “An Allosteric-Probe for Detection of Alkaline Phosphatase Activity and Its Application in Immunoassay”.

The target of this data set is Streptavidin (on Sepharose beads) (UniProt P22629 25-183). The data set is described as follows: bead binding, flow cytometry and fluorescence microscopy; SA3 released from AP by lambda exo, no ALP; 70 mM Tris-HCl, 10 mM MgCl2, pH 8.0; 200 nM AP in 100 uL, 3 uL SA beads, 5 min at room temperature after enzyme steps at 37 C and 75 C inactivation. The following applies: protein: commercial; tags: immobilized on Sepharose beads; chain copies: 4; label: 5'-FAM; hairpin with bulge.
Streptavidin (on Sepharose beads), sequence (P22629 25-183): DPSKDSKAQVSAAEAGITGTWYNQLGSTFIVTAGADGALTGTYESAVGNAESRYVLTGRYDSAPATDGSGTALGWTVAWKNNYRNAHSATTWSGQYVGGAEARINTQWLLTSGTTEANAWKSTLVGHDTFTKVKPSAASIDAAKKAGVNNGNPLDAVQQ

As for ATTGACGCGTGTGACGCAACACTCAAT (structured_DNA) [SA3], the binding result is listed as “binds”.
